Measurements taken from US20250042992A1 (University of California, published 2025).

Tests used:
[1] = molecular target: T1, human DLK1 long form (isoform 1, DLK1-FL) fused to mGFP, overexpressed on HEK293T cells (human, UniProt P80370 24-383); experiment: KinExA on HEK293T DLK1mGFP Human Clone G06 cells detached by Versene; Error% 5.90; 95% CI not defined; equilibrium curves 400pM, 50nM
T1 construct: also called HEK293T DLK1 mGFP G06 (long form); DLK-FL; not shown: mGFP fluorescent protein fused to DLK1
T1 sequence: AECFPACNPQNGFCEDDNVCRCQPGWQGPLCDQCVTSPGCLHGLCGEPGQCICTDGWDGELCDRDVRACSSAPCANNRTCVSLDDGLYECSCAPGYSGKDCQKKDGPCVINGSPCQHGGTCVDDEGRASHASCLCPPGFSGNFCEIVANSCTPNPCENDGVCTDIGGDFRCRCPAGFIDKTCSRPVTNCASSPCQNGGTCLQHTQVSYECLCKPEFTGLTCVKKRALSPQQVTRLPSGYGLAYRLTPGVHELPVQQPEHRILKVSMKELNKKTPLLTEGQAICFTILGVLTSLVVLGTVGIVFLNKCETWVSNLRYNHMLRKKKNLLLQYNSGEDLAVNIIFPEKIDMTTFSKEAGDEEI

[2] = molecular target: T2, recombinant fusion protein of human DLK1 extracellular domain (ECD) and monomeric immunoglobulin Fc domain … (human, UniProt P80370 24-303); experiment: Octet384 binding kinetics using recombinant protein DLK1 ECD-mFc, row Ka (1/Ms)
T2 construct: also called human DLK1 ECD-mFc fusion protein; not shown: monomeric immunoglobulin Fc domain (mFc)
T2 sequence: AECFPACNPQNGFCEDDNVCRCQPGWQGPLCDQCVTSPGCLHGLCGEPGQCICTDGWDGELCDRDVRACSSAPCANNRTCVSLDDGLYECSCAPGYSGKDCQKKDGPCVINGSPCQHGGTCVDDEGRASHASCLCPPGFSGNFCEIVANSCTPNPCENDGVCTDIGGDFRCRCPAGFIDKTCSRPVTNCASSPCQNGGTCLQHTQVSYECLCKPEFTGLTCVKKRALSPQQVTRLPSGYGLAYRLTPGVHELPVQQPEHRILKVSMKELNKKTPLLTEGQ

[3] = molecular target: T1, human DLK1 long form (isoform 1, …); experiment: KinExA on cells, row HEK293 DLK1-mGFP G05 Cells
[4] = molecular target: T2, recombinant fusion protein of human …; experiment: ELISA on recombinant DLK1 ECD-mFc
[5] = molecular target: T2, recombinant fusion protein of human …; experiment: Octet384 binding kinetics using recombinant protein DLK1 ECD-mFc
[6] = molecular target: T1, human DLK1 long form (isoform 1, …); experiment: KinExA on cells, block Cross Reactivity to Three Tox Models - KD by KinExA (nM), row HEK293T Human DLK1mGFP G05
[7] = molecular target: T3, monkey DLK1 fused to mGFP, overexpressed on HEK293T cells (monkey (crab-eating macaque), UniProt A0A2K5TMQ6 24-383); experiment: KinExA on cells, row HEK293T Monkey DLK1mGFP mass
T3 construct: whole, on cells; also called crab-eating macaque DLK1; not shown: mGFP fluorescent protein fused to DLK1
T3 sequence: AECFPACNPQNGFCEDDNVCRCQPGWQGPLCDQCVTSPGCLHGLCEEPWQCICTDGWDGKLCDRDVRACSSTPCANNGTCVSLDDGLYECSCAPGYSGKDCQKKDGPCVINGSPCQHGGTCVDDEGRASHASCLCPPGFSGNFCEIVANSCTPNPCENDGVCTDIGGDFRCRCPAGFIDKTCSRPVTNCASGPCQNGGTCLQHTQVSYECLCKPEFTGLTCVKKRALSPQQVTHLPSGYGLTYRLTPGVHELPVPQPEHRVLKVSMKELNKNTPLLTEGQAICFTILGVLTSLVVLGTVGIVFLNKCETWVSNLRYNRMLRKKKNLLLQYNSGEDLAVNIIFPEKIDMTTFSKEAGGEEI

[8] = molecular target: T2, recombinant fusion protein of human …; experiment: ELISA with human DLK1 ECD-mFc fusion protein
[9] = molecular target: T2, recombinant fusion protein of human …; experiment: Octet384 binding kinetics using recombinant protein DLK1 ECD-mFc, row Kdis (1/s)
[10] = molecular target: T4, DLK1 ECD-mFc short form (human DLK1-MB, isoform 2) (human, UniProt P80370 24-228); experiment: ELISA, plate coated with short form of DLK1 ECD-mFc (isoform 2), anti-human IgG Fc-HRP, OD450nm
T4 construct: also called short form of the human DLK1 protein (ELISA coat); not shown: mFc (monomeric immunoglobulin Fc domain)
T4 sequence: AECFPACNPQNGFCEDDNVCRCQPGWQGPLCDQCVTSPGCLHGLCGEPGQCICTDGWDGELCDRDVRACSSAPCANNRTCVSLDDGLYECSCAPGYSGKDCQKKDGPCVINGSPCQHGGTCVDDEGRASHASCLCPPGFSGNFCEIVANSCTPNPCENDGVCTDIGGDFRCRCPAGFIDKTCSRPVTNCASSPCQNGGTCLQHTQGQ
Method: (§1) Plates were incubated with DLK1 Abs serially diluted 2-fold starting from 400 ng/ml in 5% BSA/PBS at RT for 1.5 hrs. Mouse anti-human IgG Fc secondary antibody conjugated to HRP (Novus catalog number: NBP1-78623H) at 1:3000 dilution was applied to each well at 50 μl/well and further incubated at RT for 1 hr. The ELISA was developed first with Thermo Scientific Pierce 1-Step™ Ultra TMB-ELISA substrate solution and then with addition of sulfuric acid stop solution. The ELISA plate was read on a plate reader at 450 nm.

[11] = molecular target: T5, DLK1 ECD-mFc long form (human DLK1-FL, isoform 1) (human, UniProt P80370 24-303); experiment: ELISA, plate coated with DLK1 ECD-mFc long form
T5 construct: also called long form of the human DLK1 protein (ELISA coat); not shown: mFc (monomeric immunoglobulin Fc domain)
T5 sequence: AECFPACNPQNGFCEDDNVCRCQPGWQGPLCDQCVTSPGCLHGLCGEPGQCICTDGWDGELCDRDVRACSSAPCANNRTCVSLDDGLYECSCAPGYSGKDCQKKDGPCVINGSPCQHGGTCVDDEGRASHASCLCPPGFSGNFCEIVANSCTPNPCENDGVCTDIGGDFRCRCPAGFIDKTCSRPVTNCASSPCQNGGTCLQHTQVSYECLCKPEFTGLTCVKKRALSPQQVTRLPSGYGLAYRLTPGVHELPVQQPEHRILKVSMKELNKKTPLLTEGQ
Method: as §1

Kd [1] [nM]	kon [2] [M⁻¹ s⁻¹]	Kd [3] [nM]	EC50 [4] [nM]	Kd [5] [nM]	Kd [7] [nM]	fold lower binding affinity (ELISA EC50) than 04-0561-f1 and 04-0562-h10 [8] [fold]	koff [9] [s⁻¹]	EC50 [8] [nM]	EC50 [10] [nM]	fold higher binding affinity than LegoChem 18A5 antibody for human DLK1-FL [11] [fold]	Binder	Kd [6] [nM]
5.34	15500	5.34	10.3	0.298	9.89	~20	0.00462				humanized anti-DLK1 antibody 04-0547-h2 (IgG1) (antibody, V domains shown, human kappa (P01834) and human IgG1 (P01857) constant regions) VH: EVQLVESGGGLVQPGGSLRLSCAASGFSISDYYMAWVRQAPGKGLEWVANINYDGTNTYYADSVKGRFTISRDNSKNTLYLQMNSLRAEDTAVYYCVRSYYYYGMEYWGQGTTVTVSS VL: DIQMTQSPSSLSASVGDRVTITCRASHDVSTAVAWYQQKPGKAPKLLIYSASYRYTGVPSRFSGSGSGTDFTLTISSLQPEDFATYYCQQHYRIPLTFGQGTKLEIK	5.34
	48200	1.11	0.684	0.0186	2.19		0.000898	~0.5	0.81	> 20	humanized anti-DLK1 antibody 04-0561-F1 (IgG1) (antibody, V domains shown) VH: QVQLQESGPGLVKPSETLSLTCTVSGFSLSIYSVHWVRQPPGKGLEWIGLIWGGGSTDYNPSLKSRVTISKDTSKNQVSLKLSSVTAADTAVYYCARKEGNYLWFAYWGQGTLVTVSS VL: DIVMTQSPDSLAVSLGERVTMNCKSSQSLLQSSNQKNYLAWYQQKPGQPPKLLVYFASTRESGVPDRFSGSGSGTDFTLTISSVQAEDVAVYYCQQHYSIPLTFGQGTKLEIKR	1.11
